Measured values as given in US20220403048A1 (CANCER RESEARCH TECHNOLOGY, published 2022).
Substitutions are numbered along the chain they refer to. One block for each binder: values may come before it.

Tests used:
[1] = target: T1, THP-1 lysate derived human trimeric ARG2 (human, UniProt P78540 23-354, limits assumed); test: cell-based or functional assay
T1 sequence (looked up): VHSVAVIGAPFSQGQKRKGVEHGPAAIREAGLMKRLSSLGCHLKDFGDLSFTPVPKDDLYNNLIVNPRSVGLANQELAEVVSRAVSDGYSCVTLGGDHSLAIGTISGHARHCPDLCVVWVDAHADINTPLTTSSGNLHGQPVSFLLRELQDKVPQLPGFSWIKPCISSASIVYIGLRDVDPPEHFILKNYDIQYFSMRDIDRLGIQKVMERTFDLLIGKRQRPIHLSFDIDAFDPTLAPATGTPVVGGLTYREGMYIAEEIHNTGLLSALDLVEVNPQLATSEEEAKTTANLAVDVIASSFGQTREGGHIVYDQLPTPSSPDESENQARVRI

[2] = target: T2, recombinant human monomeric ARG2 (human, UniProt P78540 23-354); test: cell-based or functional assay
T2 sequence (looked up): T1 sequence (looked up) with E253Q

[3] = target: T3, biotinylated recombinant human trimeric ARG2 enzyme (Avi-huARG2-His10) (human, UniProt P78540 23-354, biotinylated); test: HTRF epitope competition, scFv titrated, competitor C0020187 IgG, on biotinylated human trimeric ARG2
T3 construct: also called avi-Arg2-His10; bio-ARG2
T3 chain: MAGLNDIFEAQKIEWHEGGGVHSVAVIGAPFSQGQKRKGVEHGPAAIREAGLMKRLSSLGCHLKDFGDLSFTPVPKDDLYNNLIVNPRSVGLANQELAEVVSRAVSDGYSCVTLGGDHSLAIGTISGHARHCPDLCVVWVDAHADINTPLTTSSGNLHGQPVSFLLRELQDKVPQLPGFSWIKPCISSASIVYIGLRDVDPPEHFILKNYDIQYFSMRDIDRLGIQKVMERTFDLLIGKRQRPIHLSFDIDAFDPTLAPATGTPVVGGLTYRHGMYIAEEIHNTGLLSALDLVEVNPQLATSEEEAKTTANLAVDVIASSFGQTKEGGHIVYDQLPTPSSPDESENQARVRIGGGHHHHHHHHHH

[4] = target: T4, recombinant human trimeric ARG2 enzyme (construct not given) (human, UniProt P78540 23-354); test: cell-based or functional assay
T4 sequence (looked up): T1 sequence (looked up)

[5] = target: T5, biotinylated recombinant human trimeric ARG1 enzyme (Avi-huARG1-His10) (human, UniProt P05089 1-322, biotinylated in HTRF and streptavidin BLI assays); test: HTRF direct binding assay, biotinylated recombinant human trimeric ARG1
T5 construct: also called Human ARG1; recombinant ARG1
T5 sequence: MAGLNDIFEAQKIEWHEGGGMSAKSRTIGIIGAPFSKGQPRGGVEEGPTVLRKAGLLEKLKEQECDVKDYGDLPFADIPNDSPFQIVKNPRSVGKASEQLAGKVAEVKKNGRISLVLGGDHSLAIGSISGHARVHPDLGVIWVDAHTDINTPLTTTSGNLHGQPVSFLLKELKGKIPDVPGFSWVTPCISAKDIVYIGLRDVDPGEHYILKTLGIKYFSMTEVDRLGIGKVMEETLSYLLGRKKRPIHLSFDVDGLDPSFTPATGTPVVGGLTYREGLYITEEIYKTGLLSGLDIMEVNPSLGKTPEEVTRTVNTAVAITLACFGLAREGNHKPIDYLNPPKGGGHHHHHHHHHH

[6] = target: T3, biotinylated recombinant human trimeric …; test: HTRF direct binding assay, biotinylated recombinant human trimeric ARG2, streptavidin cryptate and anti-c-myc-XL665, % Delta F
Description: In this assay, binding of unpurified scFv to recombinant human trimeric ARG2 enzyme was assessed by measuring the fluorescence resonance energy transfer (FRET) between the c-myc tagged scFv and the biotinylated enzyme using streptavidin cryptate and anti-c-myc-XL665 detection reagents (CisBio International, France; cat: 610SAKLB and 61 MYCXLB respectively). Selection outputs were screened as unpurified bacterial periplasmic extracts containing scFv, prepared in 200 mM tris buffer pH 7.4, 0.5 mM EDTA and 0.5 M sucrose. 5 μl of unpurified scFv samples were added to a Greiner® 384 well assay plate (Greiner Bio-one, UK; cat: 784076). This was followed by the addition of 5 μl of 12 nM recombinant human trimeric ARG2 enzyme, 5 μl of 6.67 nM streptavidin cryptate and 5 μl 40 nM anti-c-myc-XL665. […] Assay plates were incubated overnight at 4° C. prior to reading time resolved fluorescence on a Pherastar plate reader ([…]) using an excitation wavelength of 320 nm and measuring the emission at 620 nm and 665 nm (100 flashes).
The ARG2 binding profile of each purified scFv was determined by testing a dilution series of the purified scFv in the HTRF™ assay described in section 1.4, substituting the unpurified scFv periplasmic preparation with the purified scFv. […]

[7] = target: T6, biotinylated recombinant cynomolgus monkey trimeric ARG2 enzyme (Avi-cynoARG2-His10) (cynomolgus monkey, UniProt P78540 23-354 (human entry), biotinylated); test: HTRF direct binding assay, biotinylated recombinant cynomolgus trimeric ARG2, streptavidin cryptate and anti-c-myc-XL665, Delta F %
T6 construct: also called cynomolgus ARG2
T6 chain: T3 chain with A189P, R231Q, H273E, K325R, D333G

[8] = target: T4, recombinant human trimeric ARG2 enzyme …; test: cell-based or functional assay; remark: listed apart in the source
[9] = target: T1, THP-1 lysate derived human trimeric ARG2; test: cell-based or functional assay; remark: listed apart in the source
[10] = target: T3, biotinylated recombinant human trimeric …; test: BLI (OctetRED) extended assay, bio-ARG2 on streptavidin, Fab as analyte, 1:1 fit
Description: (§1) The affinities of the second-generation antibodies to human ARG2 were measured on the OctetRED system. A screening assay which stably captures His-tagged ARG2 as the ligand on an anti-His surface was utilised to screen the second-generation candidates as Fabs at an analyte range of 1.8 to 120 nM, with an association time of 5 minutes and a dissociation time of 10 minutes. Sensors were regenerated using 10 mM glycine pH 1.5 after each cycle. Based on this assay, six candidates with estimated affinities in the sub-nanomolar range were identified, and they were further profiled using an extended assay which is more suitable for antibodies of high affinities. In the extended assay, the association and dissociation times were extended to 10 and 40 minutes respectively, using a lower Fab analyte titration range of 0.47 to 30 nM, on a streptavidin surface which captures bio-ARG2 as the ligand. The sensorgrams were reference subtracted and fitted to the 1:1 binding model to estimate their binding affinities using the Octet analysis software.

[11] = target: T6, biotinylated recombinant cynomolgus …; test: BLI (OctetRED) extended assay, biotinylated cyno ARG2 on streptavidin, Fab as analyte, 1:1 fit
Description: as §1
The affinities of some of these antibodies to cynomolgus ARG2 were determined using the same assay, and the derived kinetic parameters are shown in Table 21.

[12] = target: T5, biotinylated recombinant human trimeric …; test: BLI (OctetRED), His-tagged ligand on anti-His surface

THP-1 ARG2 EIA IC50 [1]: 649 nM
IC50 (read off the curve) [2]: ~4 nM
B1: C0020187 recombinant human IgG1 (antibody, V domains shown)
VH: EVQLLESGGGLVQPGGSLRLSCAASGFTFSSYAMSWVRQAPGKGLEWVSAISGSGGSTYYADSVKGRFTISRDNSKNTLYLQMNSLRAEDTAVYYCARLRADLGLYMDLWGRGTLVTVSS
VL: QSVLTQPPSVSAAPGQKVTISCSGSSSNIGNHYVSWYQQLPGTAPKLLIYDNSERPSGIPDRFSGSKSGTSATLGITGLQTGDEADYYCGTWDSSLSALVFGGGTKLTVL

IC50 [3]: 1580 nM
Trimeric human ARG2 EIA IC50 [4]: 964 nM
binding result [5]: no binding (tested: log M -6 (1e-6 M))
EC50 (read off the curve) [6]: ~20 nM
EC50 (read off the curve) [7]: ~10 nM
B2: C0020187 scFv (scFv, V domains shown)
VH: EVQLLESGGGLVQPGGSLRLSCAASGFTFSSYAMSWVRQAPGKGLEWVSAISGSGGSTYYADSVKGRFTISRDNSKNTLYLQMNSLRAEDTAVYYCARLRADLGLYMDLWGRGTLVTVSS
VL: B1 VL
notes: c-myc tagged scFv; also called parent C0020187 scFv

THP-1 ARG2 EIA IC50 [1]: 2.3 nM
EC50, In Presence of rhARG2 (T cell proliferation) [8]: 157 nM
Maximum % Proliferation, In Presence of rhARG2 [8]: 90%
THP-1 lysate ARG2 EIA IC50 [9]: 5.36 nM
B3: C0021158 recombinant human IgG1 (antibody, V domains shown)
VH: EVQLLESGGGLVQPGGSLRLSCAASGFTFRYEVAAWVRQAPGKGLEWVSAISGPIPKGYYADSVKGRFTISRDNSKNTLYLQMNSLRAEDTAVYYCARLRADLGLYMDLWGRGTLVTVSS
VL: B1 VL with P56T, S57A, I59V, S94E, S95L, L96T, A98N

THP-1 ARG2 EIA IC50 [1]: 3 nM
B4: C0021158-fgl2 recombinant human IgG1 (antibody, V domains shown)
VH: B3 VH
VL: B1 VL with S53A, P56T, S57A, S94E, S95L, L96T, A98N

Kd [10]: 0.437 nM
koff [10]: 0.000122 s⁻¹
kon [10]: 278000 M⁻¹ s⁻¹
Kd [11]: 0.353 nM
koff [11]: 0.000135 s⁻¹
kon [11]: 381000 M⁻¹ s⁻¹
binding result [12]: no binding (tested: up to 120 nM Fab)
B5: C0021180 Fab (Fab, V domains shown)
VH: B3 VH
VL: QSVLTQPPTVSAAPGRKVTISCSGSSSNIGDHHVSWYQQLPGAAPKLLIYDTDHMASGIPDRFSGSRSGTSATLGITGLQTGDEADYYCGTWDSSLSALVFGGGTKLTVL
notes: Human Fab

IC50 (read off the curve) [2]: ~6 nM
B6: C0020065 recombinant human IgG1 (antibody, V domains shown)
VH: GVNLRESGGGVVQPGRSLRLSCAASGFTFSSYAMHWVRQAPGKGLEWVAVISYDGSNKYYVDSVKGRFTISRDNSKNTLYLQMNSLRAEDTAVYYCARDSSQLWFDYWGRGTLVTVSS
VL: QSVVTQPPSVSGAPGQRVTISCTGSSSNIGTGYDVHWYQQLPGTAPKLLIYGNSNRPSGVPDRFSGSKSGTSASLAITGLQAEDEADYYCQSYDSSLSGSVVFGGGTQLTVL

binding result [5]: no binding (tested: log M -6 (1e-6 M))
binding result [7]: binds
B7: C0020065 scFv (scFv, V domains shown)
VH: B6 VH
VL: B6 VL
notes: c-myc tagged scFv
